Laboratory results as given in patent publication EP4477665A1 (AffyXell Therapeutics Co., Ltd., dated 2024).
One block for each binder: values may come before it.

How the values were obtained:
[1] = target: T1, hCD40L expressed on hCD40L-HEK-293 cells (Crown Biosciences, C2041) (human, UniProt P29965 1-261); test: flow cytometry on hCD40L-HEK293 cells, doses 0.7 to 500 nM
T1 construct: whole, on cells; also called huCD40L HEK293
T1 sequence (looked up): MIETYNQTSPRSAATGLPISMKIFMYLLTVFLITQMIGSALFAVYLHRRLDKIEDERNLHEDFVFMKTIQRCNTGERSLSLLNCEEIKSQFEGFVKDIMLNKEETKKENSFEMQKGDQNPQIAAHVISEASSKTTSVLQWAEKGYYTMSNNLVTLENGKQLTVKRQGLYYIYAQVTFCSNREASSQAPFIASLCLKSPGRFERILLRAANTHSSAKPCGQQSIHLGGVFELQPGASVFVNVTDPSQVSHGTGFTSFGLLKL

human serum albumin = target: T2, human serum albumin (human, UniProt P02768 25-609); test: bridging ELISA: capture on coated hCD40L, 10 uM HSA, anti-HSA detection
T2 construct: also called HSA
T2 sequence (P02768 25-609): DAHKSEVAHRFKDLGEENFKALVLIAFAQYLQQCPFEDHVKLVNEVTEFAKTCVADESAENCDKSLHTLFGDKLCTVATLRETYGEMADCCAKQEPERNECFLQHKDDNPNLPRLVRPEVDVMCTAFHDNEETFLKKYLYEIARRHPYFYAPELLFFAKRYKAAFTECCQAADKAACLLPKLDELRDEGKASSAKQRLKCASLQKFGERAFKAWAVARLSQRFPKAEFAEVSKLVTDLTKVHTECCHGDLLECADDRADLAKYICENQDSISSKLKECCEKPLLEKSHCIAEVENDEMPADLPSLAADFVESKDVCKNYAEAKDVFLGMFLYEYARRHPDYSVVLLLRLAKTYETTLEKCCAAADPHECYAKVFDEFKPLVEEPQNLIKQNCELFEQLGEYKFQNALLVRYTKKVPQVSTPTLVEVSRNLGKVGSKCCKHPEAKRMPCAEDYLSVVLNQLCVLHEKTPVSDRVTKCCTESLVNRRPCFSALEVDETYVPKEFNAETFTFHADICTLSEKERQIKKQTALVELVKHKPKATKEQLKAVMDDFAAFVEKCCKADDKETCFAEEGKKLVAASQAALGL

[2] = target: T3, human CD40L (hCD40L antigen) (human, UniProt P29965 113-261, limits assumed); test: cell-based or functional assay
T3 sequence (looked up): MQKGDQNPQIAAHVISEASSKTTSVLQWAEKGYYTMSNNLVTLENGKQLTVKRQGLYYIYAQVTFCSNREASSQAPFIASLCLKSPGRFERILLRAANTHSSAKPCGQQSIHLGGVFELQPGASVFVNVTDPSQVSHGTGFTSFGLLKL

B1: clone 230 (designed binder)
chain: MIPGGLSEAKPATPEIQEIVDKVKPQLEEKTGETYGKLEAVQYKTQVVHYYVHYNDQGTNYYIKVRAGDNKYMHLKVFKSLWGENLFAKWEDLVLTGYQVDKNKDDELTGF
binding result [1]: binds

B2: clone-230 XT76 (designed binder)
chain: IPGGLSEAKPATPEIQEIVDKVKPQLEEKTGETYGKLEAVQYKTQVVHYYVHYNDQGTNYYIKVRAGDNKYMHLKVFKSLWGENLFAKWEDLVLTGYQVDKNKDDELTGFAEAAAKEAAAKEAAAKEAAAKEAAAKEAAAKMIPGGLSEAKPATPEIQEIVDKVKPQLEEKTGETYGKLEAVQYKTQVVHYYVHYNDQGTNYYIKVRAGDNKYMHLKVFKSLWGENLFAKWEDLVLTGYQVDKNKDDELTGFAEAAAKEAAAKEAAAKEAAAKEAAAKEAAAKMIPGGLSEAKPATPEIQEIVDKVKPQLEEKTGETYGKLEAVQYKTQVVHYYVHYNDQGTNYYIKVRAGDNKYMHLKVFKSLWGENLFAKWEDLVLTGYQVDKNKDDELTGFAEAAAKEAAAKEAAAKEAAAKEAAAKEAAAKMIPGGLSEAKPATPEIQEIVDKVKPQLEEKTGETYGKLEAVQYKTQVVHYYVHYNDQGTNYYIKVRAGDNKYMHLKVFKSLWGENLFAKWEDLVLTGYQVDKNKDDELTGFAEAAAKEAAAKEAAAKEAAAKEAAAKEAAAKMIPRGLSEAKPATPEIQEIVDKVKPQLEEKTGETYGKLEAVQYKTQVLANFFQRRWPGSTNYYIKVRAGDNKYMHLKVFNGPWKFRNTDRGADRVLTGYQVDKNKDDELTGF
binding result (human serum albumin): binds

Next, values leading:

binding result (human serum albumin): binds
B3: clone-230 XT75 (designed binder)
chain: IPGGLSEAKPATPEIQEIVDKVKPQLEEKTGETYGKLEAVQYKTQVVHYYVHYNDQGTNYYIKVRAGDNKYMHLKVFKSLWGENLFAKWEDLVLTGYQVDKNKDDELTGFAEAAAKEAAAKEAAAKEAAAKEAAAKEAAAKMIPGGLSEAKPATPEIQEIVDKVKPQLEEKTGETYGKLEAVQYKTQVVHYYVHYNDQGTNYYIKVRAGDNKYMHLKVFKSLWGENLFAKWEDLVLTGYQVDKNKDDELTGFAEAAAKEAAAKEAAAKEAAAKEAAAKEAAAKMIPGGLSEAKPATPEIQEIVDKVKPQLEEKTGETYGKLEAVQYKTQVVHYYVHYNDQGTNYYIKVRAGDNKYMHLKVFKSLWGENLFAKWEDLVLTGYQVDKNKDDELTGFAEAAAKEAAAKEAAAKEAAAKEAAAKEAAAKMIPRGLSEAKPATPEIQEIVDKVKPQLEEKTGETYGKLEAVQYKTQVLANFFQRRWPGSTNYYIKVRAGDNKYMHLKVFNGPWKFRNTDRGADRVLTGYQVDKNKDDELTGF

EC50, HEK-Blue cell-based assay [2]: 5.99 nM
B4: clone 230 DJ (designed binder)
chain: IPGGLSEAKPATPEIQEIVDKVKPQLEEKTGETYGKLEAVQYKTQVVHYYVHYNDQGTNYYIKVRAGDNKYMHLKVFKSLWGENLFAKWEDLVLTGYQVDKNKDDELTGFGGGGSGGGGSGGGGSGGGGSGGGGSGGGGSMIPGGLSEAKPATPEIQEIVDKVKPQLEEKTGETYGKLEAVQYKTQVVHYYVHYNDQGTNYYIKVRAGDNKYMHLKVFKSLWGENLFAKWEDLVLTGYQVDKNKDDELTGFGGGGSGGGGSGGGGSGGGGSGGGGSGGGGSMIPGGLSEAKPATPEIQEIVDKVKPQLEEKTGETYGKLEAVQYKTQVVHYYVHYNDQGTNYYIKVRAGDNKYMHLKVFKSLWGENLFAKWEDLVLTGYQVDKNKDDELTGF
